Laboratory results reported in article PMC4966956, “Analysis of the Bile Salt Export Pump (ABCB11) Interactome Employing Complementary Approaches” (PLoS ONE, 2016).

Target: T1, bile salt export pump (BSEP), purified, with C-terminal affinity tags (human, UniProt O95342 1-1321)
T1 construct: bile salt export pump (BSEP, ABCB11), human; construct pSGP18-2μ-BSEP; also called purified BSEP; pSGP18-2μ-BSEP; not shown: His tag (inferred from the removal of the tags on Ni-NTA), C-terminal, kept
Test: pull-down; Strep-tagged partner immobilised on Strep-Tactin resin, detergent-solubilised purified BSEP added for 30 min at 4°C; 50 mM sodium phosphate pH 7, 150 mM NaCl, 20% glycerol, 0.022% DDM; immunoblot against BSEP and Strep-tag II
Settings: both partners purified

T1 sequence (O95342 whole entry): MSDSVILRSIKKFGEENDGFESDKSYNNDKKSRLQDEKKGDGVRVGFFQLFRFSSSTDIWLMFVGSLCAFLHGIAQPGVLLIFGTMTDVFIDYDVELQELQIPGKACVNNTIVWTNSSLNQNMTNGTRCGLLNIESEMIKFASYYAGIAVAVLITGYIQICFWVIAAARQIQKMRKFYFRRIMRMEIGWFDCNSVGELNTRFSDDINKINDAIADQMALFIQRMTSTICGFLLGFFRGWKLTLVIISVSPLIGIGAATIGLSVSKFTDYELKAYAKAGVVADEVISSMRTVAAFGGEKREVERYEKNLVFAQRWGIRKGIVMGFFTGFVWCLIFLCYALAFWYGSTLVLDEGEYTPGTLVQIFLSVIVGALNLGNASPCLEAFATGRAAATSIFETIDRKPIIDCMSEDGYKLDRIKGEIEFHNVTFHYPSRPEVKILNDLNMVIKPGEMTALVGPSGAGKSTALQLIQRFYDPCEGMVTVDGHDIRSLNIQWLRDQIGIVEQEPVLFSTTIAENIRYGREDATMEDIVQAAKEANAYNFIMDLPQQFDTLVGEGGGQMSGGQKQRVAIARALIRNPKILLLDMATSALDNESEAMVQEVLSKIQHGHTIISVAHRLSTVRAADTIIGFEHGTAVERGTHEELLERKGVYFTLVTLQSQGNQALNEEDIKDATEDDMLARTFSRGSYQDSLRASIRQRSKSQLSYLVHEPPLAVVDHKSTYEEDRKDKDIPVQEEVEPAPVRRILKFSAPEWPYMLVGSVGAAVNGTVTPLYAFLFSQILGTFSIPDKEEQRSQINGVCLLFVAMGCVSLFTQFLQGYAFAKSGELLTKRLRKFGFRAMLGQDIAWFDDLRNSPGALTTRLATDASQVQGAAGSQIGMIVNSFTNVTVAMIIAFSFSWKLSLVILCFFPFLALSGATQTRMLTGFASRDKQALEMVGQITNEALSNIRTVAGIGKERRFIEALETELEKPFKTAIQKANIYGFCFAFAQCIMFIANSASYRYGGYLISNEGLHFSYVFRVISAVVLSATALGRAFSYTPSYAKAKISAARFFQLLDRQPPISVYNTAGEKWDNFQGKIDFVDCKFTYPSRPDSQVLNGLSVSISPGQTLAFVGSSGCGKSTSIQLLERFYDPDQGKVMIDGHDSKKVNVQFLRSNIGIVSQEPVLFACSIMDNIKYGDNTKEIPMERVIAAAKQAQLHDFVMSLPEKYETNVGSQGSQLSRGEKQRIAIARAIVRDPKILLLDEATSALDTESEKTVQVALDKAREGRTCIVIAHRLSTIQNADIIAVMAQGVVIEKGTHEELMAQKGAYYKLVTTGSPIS

B1: BACS_(77-690), Strep-tagged, purified (domain or fragment, human, UniProt Q9Y2P5-1 77-690, looked up)
chain: PARLPPGLRWLPADVIFLAKILHLGLKIRGCLSRQPPDTFVDAFERRARAQPGRALLVWTGPGAGSVTFGELDARACQAAWALKAELGDPASLCAGEPTALLVLASQAVPALCMWLGLAKLGCPTAWINPHGRGMPLAHSVLSSGARVLVVDPDLRESLEEILPKLQAENIRCFYLSHTSPTPGVGALGAALDAAPSHPVPADLRAGITWRSPALFIYTSGTTGLPKPAILTHERVLQMSKMLSLSGATADDVVYTVLPLYHVMGLVVGILGCLDLGATCVLAPKFSTSCFWDDCRQHGVTVILYVGELLRYLCNIPQQPEDRTHTVRLAMGNGLRADVWETFQQRFGPIRIWEVYGSTEGNMGLVNYVGRCGALGKMSCLLRMLSPFELVQFDMEAAEPVRDNQGFCIPVGLGEPGLLLTKVVSQQPFVGYRGPRELSERKLVRNVRQSGDVYYNTGDVLAMDREGFLYFRDRLGDTFRWKGENVSTHEVEGVLSQVDFLQQVNVYGVCVPGCEGKVGMAAVQLAPGQTFDGEKLYQHVRAWLPAYATPHFIRIQDAMEVTSTFKLMKTRLVREGFNVGIVVDPLFVLDNRAQSFRPLTAEMYQAVCEGTWRL
notes: bile acyl-CoA synthetase (BACS, SLC27A5), human, residues 77-690, without the N-terminal membrane anchor, in pET-51b(+); vector pET-51b(+); also called BACS lacking its N-terminal membrane anchor; bile acyl-CoA synthetase; source: E. coli Rosetta (DE3) pLysS, purified (Strep-Tactin)
B1: binds.
